{"source": "the supplement of paper PMC12764529", "note": "± gives the half width of the 95% confidence interval."}
{"assay": "folding stability dG unfold from trypsin proteolysis; higher = more stable", "summary_of_the_method": "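Designed mini-proteins with no cysteine and under 80 residues were kept only if AlphaFold2 dimer inter-PAE was above 15. In a PA-tagged cDNA display construct, they were digested with trypsin and chymotrypsin and then sequenced. K50 was inferred by Bayesian fitting of counts, and unfolding free energy was derived per protease or combined against a sequence-predicted unfolded-state K50 and a shared folded-state K50.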", "units": {"folding stability dG unfold": "kcal/mol"}}
{"sequence": "SPGMEPIREWELKLPDPDGEDKDLEVEMYRMPEGNYYVDISIPNGKKIPFPMPPDEPITPDDIRNFIKKFSA [r9_616_TrROS]", "folding stability dG unfold": "0.133 ± 0.26"}
{"sequence": "SAGGSPPLPLKITKITDTRYERNPDGQGWVKIEIRLPENGKPITIPVQADSPEQAEYAVKEALKKFSAGGSA [r2_248_TrROS]", "folding stability dG unfold": "-0.315 ± 0.16"}
{"sequence": "SAAPDEVVTLEFTVPVVTTFEPGAPYVAPARLTVTFHPPDRVEIRLVSPDGRLVATRTVPPSVLLSEVISAG [r14_559_TrMRF]", "folding stability dG unfold": "1.62 ± 0.032"}
{"sequence": "SAGGMKPGETWRIRTPGKTITIEVKDGKITVTVEENGKKKTIVVEAETEEEALEALRSIPGLEIEKVSAGGS [r16_583_TrROS_Hall]", "folding stability dG unfold": "1.73 ± 0.05"}
{"sequence": "SAGGMAVPVKVRDPVNGNWKTLDNIESIDEVVEVDPTDGSRSYFVKLKGSGKWYVVDDPEAVEAAKGSAGGS [r8_206_TrMRF]", "folding stability dG unfold": "1.17 ± 0.064"}
{"sequence": "SAGGSAGGSGVSSVRPVALPGGRVLVLEYFSSTGKVRVTTLTVGDGRPARAESVTPVTPESILSAGGSAGGS [r12_961_JUSTAS]", "folding stability dG unfold": "0.598 ± 0.052"}
{"sequence": "SAGGSGSTTPETRTEPSPGGTTTEVRTDVHTLPDAETVEITVTRGGRTITLTASPAEAATLRVTPGASAGGS [r8_257_JUSTAS]", "folding stability dG unfold": "-0.555 ± 0.61"}
{"sequence": "SAGGSAGGSDPSATISFSFPLPDGSTININITITDEGSGPRIEIDITVTDANNNTAPAKFTIDSAGGSAGGS [r12_33_TrMRF]", "folding stability dG unfold": "1.58 ± 0.11"}
{"sequence": "GMTIVPPSSPVTDSSGNYEEYPDSQLYKDSSTGKPIIAFPMSPEELAAGDPAALARREALAKEYGLPEIEPS [r1_438_JUSTAS]", "folding stability dG unfold": "-0.579 ± 0.35"}
{"sequence": "SMKKKVVVKAKIEKIRPDGGKEELEEVFVMEVSPDDPEEIKAAIDEAIEALKKAYPNIKKIEIEEVIIEDSA [r9_436_TrMRF]", "folding stability dG unfold": "3.81 ± 0.24"}
{"sequence": "SAGGSAGGSVKPGQEIEVRVELTYDEETGELTIRREVVNKETGELIAEEEITISLEDLPPELLSAGGSAGGS [r12_145_TrROS_Hall]", "folding stability dG unfold": "1.83 ± 0.083"}
{"sequence": "SAGGSAKKYIVLAKIKEVKVTKTYKTKNGKKVKVTVKVEIKVEPVKVFKIKKDKNGNWKIEPGEVLSAGGSA [r15_162_TrROS_Hall]", "folding stability dG unfold": "2.96 ± 0.15"}
{"sequence": "SAGGSAGGSAGGMIEKIEVTKLPDGTYKVTITIPLPNGPVITKTITIPPSETVEDAIAKLSAGGSAGGSAGG [r7_54_JUSTAS]", "folding stability dG unfold": "2.54 ± 0.04"}
{"sequence": "SAGGSAGGSAGLPENVKLVKVTVTITYPNGEKETIPVVAPVPVLEKLLSLPGLPVSVTDESAGGSAGGSAGG [r17_313_TrMRF]", "folding stability dG unfold": "0.465 ± 0.028"}
{"sequence": "SAGGSAGGSAGKLYIIRIKGKKIILSEDEVEKLKKKYPNAEIIPFKSKEDAEKALKKLKESAGGSAGGSAGG [r11_60_TrROS_Hall]", "folding stability dG unfold": "2.16 ± 0.057"}
{"sequence": "SAGGSAGGSWGTISIRIEFNFMAFDPGLGQFSMFPMEVYISIPIEIPPPPPPPKPKYDNGKPKSAGGSAGGS [r12_140_TrROS]", "folding stability dG unfold": "2.6 ± 0.28"}
{"sequence": "SAGGSAGGSAGPIIPPNFEVVDVFETETSYYILVKNPETGRYYVARYDPLTGKIEVFEVSSAGGSAGGSAGG [r11_896_TrMRF]", "folding stability dG unfold": "3.46 ± 0.1"}
{"sequence": "SMLKEIPITVPEEGEVVTVNIEELAKEQGLDPNNVTVTVTSSGPGKVYKITISSNGITITEVGNVPTALLSA [r9_819_JUSTAS]", "folding stability dG unfold": "0.546 ± 0.04"}
{"sequence": "SAGARIVPIKINLKWNPDNGQLEVPIEMYVNNHPVEMEARFDPEDPGKIEFEITYPGNGQEIRASIPLPSAG [r14_178_TrROS]", "folding stability dG unfold": "0.951 ± 0.098"}
{"sequence": "SASSVEKEFDSIEDALKAIKEALAKKVPVKMKMDPETVKELKKAGFPDIDVTKEKLPNGNEYYLLELLFSAG [r14_127_JUSTAS]", "folding stability dG unfold": "1.06 ± 0.019"}
{"sequence": "SAGKPEWKLVETIEVTIEVPPGVTVEEIEKKLLEALKEKGIKEVKIEVTYDKENKTITVRVEVLVKKEKSAG [r5_924_TrROS_Hall]", "folding stability dG unfold": "1.27 ± 0.13"}
{"sequence": "SAGGSAGGSSPEENLETQVETELLEEFKPGDKPRKLVKTTVTYPDGTTKEEIVTIDENGNILLSAGGSAGGS [r12_755_JUSTAS]", "folding stability dG unfold": "-0.206 ± 0.049"}
{"sequence": "SAGGSAGGSKKIKITVVVPKEEAEKLLKELEKAGYKIVSVEKKEIPENELVVIEIVIEKPEELSAGGSAGGS [r12_445_TrROS_Hall]", "folding stability dG unfold": "3.09 ± 0.14"}
{"sequence": "SAGGSAGGSVESATTTITITASLTPEEVEEIIEELKKKGLNVKKVEIEREPETGSVTITVTVNPSAGGSAGG [r6_514_JUSTAS]", "folding stability dG unfold": "3.2 ± 0.1"}
{"sequence": "SAGGSAGGSAEELAKKLAEELRKEHNLEVTVEEVELKEEEIPGLKFKPGQKLLVITVKKKDSAGGSAGGSAG [r3_229_TrROS_Hall]", "folding stability dG unfold": "0.901 ± 0.033"}
{"sequence": "SAGGSMTIVVETPEEVEKAIKALEDELKKKGIKKGDKIKKIKVEKNENGKLTVTIEVDGKKIKIEVSAGGSA [r2_120_TrROS_Hall]", "folding stability dG unfold": "0.37 ± 0.15"}
{"sequence": "SAGGSAGGSAPLIELRPPEEPLFLPLENLLGRGIPLEELAKLLEKLTGRKVEPVKPGYIRTGSAGGSAGGSA [r18_7_TrMRF]", "folding stability dG unfold": "-0.192 ± 0.38"}
{"sequence": "SAGGNLMIRVELYRPKPDPEGEWQKREVTLPMPPGEPIEELIDELRPPGWVIEIDIFDNGKPIREYYIRSAG [r5_278_TrROS]", "folding stability dG unfold": "1.76 ± 0.12"}
{"sequence": "KKKKKKKKKKKKKEKVKVRIRIRLKVKDKETGEWKEIEVEIEIEMSKEEAEEIAKKLAEKYNFEIVEIEIES [r1_488_TrROS_Hall]", "folding stability dG unfold": "2.95 ± 0.079"}
{"sequence": "SAGGSAGGSAGMKVVVELEVTFDSEEEAEAVAKAIAEELGSEDVVVKVIRKPVELGPGLKSAGGSAGGSAGG [r17_285_JUSTAS]", "folding stability dG unfold": "0.0891 ± 0.061"}
{"sequence": "SAGGSAGGSEWTIESIRPRPDGSLIARVRPEGVNVSVEVEFDTLEELLAFAKLLEELGGKVTGSAGGSAGGS [r20_177_TrMRF]", "folding stability dG unfold": "1.62 ± 0.04"}
